Measured values as given in US20170174756A1 (AstraZeneca / MedImmune, published 2017).
Where “and” joins values, the source holds several entries; their conditions need not be identical. Equal entries are not always repeated.

Target: T1, Biotin Ang2 (R & D Systems) (UniProt O15123 19-496, biotinylated (sites not given))
T1 sequence (looked up): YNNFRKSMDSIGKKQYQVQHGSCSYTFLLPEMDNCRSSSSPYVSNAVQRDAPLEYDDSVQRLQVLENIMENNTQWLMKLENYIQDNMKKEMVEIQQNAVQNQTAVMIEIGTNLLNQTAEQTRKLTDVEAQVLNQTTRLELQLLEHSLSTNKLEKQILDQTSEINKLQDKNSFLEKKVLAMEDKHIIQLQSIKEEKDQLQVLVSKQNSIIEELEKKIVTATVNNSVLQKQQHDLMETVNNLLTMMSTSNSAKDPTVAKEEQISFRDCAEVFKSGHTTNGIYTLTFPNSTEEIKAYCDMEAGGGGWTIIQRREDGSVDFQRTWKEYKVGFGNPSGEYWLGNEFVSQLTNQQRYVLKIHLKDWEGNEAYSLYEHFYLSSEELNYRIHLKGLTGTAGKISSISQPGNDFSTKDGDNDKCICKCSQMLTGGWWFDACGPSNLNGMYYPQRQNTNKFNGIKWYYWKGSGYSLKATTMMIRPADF
Test: competition ELISA: Tie-2 Fc coated on the plate, antibody varied, blocked ligand binding is Biotin Ang2 to Tie-2 Fc, streptavidin HRP, O.D. 450 nm
Protocol: The following day, plates were blocked for 1 hour at room temperature with 200 μl of phosphate buffered saline (PBS) (Invitrogen, Carlsbad, Calif.) containing 0.5% bovine serum albumin (BSA) (Sigma, St. Louis, Mo.) and 0.1% Tween-20 (Sigma, St. Louis, Mo.). Plates were washed 3 times with wash buffer (PBS containing 0.05% Tween-20). […] Plates were washed 3 times with wash buffer. Following the wash, 100 ul of 1:5000 streptavidin HRP (Pierce, Rockford, Ill.) dilution in wash buffer were added and incubated for 1 hour at room temperature. Plates were washed 3 times with wash buffer. Plates were developed by adding 100 μl of TMB peroxidase substrate (KPL, Gaithersburg, Md.) for 5 minutes. The reaction was stopped by adding 100 μl/well of 1M phosphoric acid. Optical densities were measured at 450 nm with a microplate reader (Molecular Devices, Sunnyvale, Calif.).

- IC50 (read off the curve): ~0.1 µg/mL and ~0.2 µg/mL
B1: Ang-2 antibody 3.19.3 (antibody, V domains shown)
VH: QVQLVESGGGVVQPGRSLRLSCAASGFTFTNYGMHWGRQAPGKGLEWVAVISHDGNNKYYVDSVKGRFTISRDNSKNTLYLQMNSLRAEDTAVYYCAREGIDFWSGLNWFDPWGQGTLVTVSS
VL: EIVLTQSPGTLSLSPGERATLSCRASQSITGSYLAWYQQKPGQAPRLLICGASSWATGIPDRFSGSGSGTDFTLTISRLEPEDFAVYYCQQYSSSPITFGQGTRLEIKR
notes: Fully human monoclonal antibody; also called WT
